Laboratory results reported in article PMC3871196 (Experimental eye research, 2011).

Target: purified Ca/CaM from bovine brain (bovine, UniProt P62157 1-149)
Experiment: fluorescence polarisation

ETWKAFLESVKKLGKG [PP-C peptide]
Kd: 190 nM
